From the nanobody polyreactivity screen of Harvey et al. (2022)

Assay: yeast display, Sf9 membrane polyspecificity reagent, FACS + sequencing; frameworks hold sequencing errors
Summary of the method: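 Synthetic nanobody libraries on Saccharomyces cerevisiae BJ5465 were galactose-induced for 36–48 hours, stained 1 hour at 4 °C with 10% biotinylated, detergent-solubilized Sf9 membrane reagent and enriched on streptavidin microbeads. FACS then separated cells into low and high (top ~1%) gates by anti-HA (expression) and streptavidin (reagent binding) fluorescence. Genes were colony-PCR amplified, MiSeq 2 × 250 sequenced and CDR-length filtered. A clone's polyreactivity label is that of its gate of origin.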

## QVQLVESGGGLVQAGGSLRLSCAASGRIFVYYAMGWYSQAPGKERELVASISYSGASTYYADSVKGRFTISRDNAKNTVYLQMNSLKPEDTAVYYCNTDGDDFFHVIYDYWGQGTQVTVSS
  polyreactivity (PSR sort gate): low polyreactivity

## QVQLVESGGGLVQAGGSLRLSCAASVSIFWSYAMGWSRLAPGKERELVASISRSTGRTRYADSVKGRFTFSRDNAKNTVDLQMNSLKPEDTAVYYCNAEKRGQSYRFDYWGQGTQVTVSS
  polyreactivity (PSR sort gate): high polyreactivity

## QVQLVESGGGLVQAGGSLRLSCAASRITSYGYAMGWYRQAPGKERELVAAISRSGGTTYYADSVKGRFTISRDNAKNTVYVQMNILKPEDTAVYYCAVGKSHRGGGVTKFNYWGQGTQVTVSS
  polyreactivity (PSR sort gate): low polyreactivity

## QVQLVESGGGLVQAGGSLRLSCAASGRNFWLNAMGWYRPEPGKERELVATISRGGSTNYADSVKGRFTISRDNAKNTVYLQMNSLKPEDTAVYYCAARPYSYYWNSELDYWGQGTQVTVSS
  polyreactivity (PSR sort gate): high polyreactivity

## QVQLVESGGGLVQAGGSLRLSCAASGSTIQYYTMGWYRQAPGKERELVASITSGDSTNYADSVKGRFTISRDNAKNTVYLQMNSLKPEDTAVYYCARDRVSTQLQSSPAVSELYYWGQGTQVNVSS
  polyreactivity (PSR sort gate): low polyreactivity

## EVQLVESGGGLVQAGGSLRLTCAASGSIFPVYAMGWYRQAPGKERELVASISNGGTTYYADSVKGRFTISRDNAKNTVYLQMKSLKAEDTAVYYCAATGWAYGYGYGYWGQGSQVTVSS
  polyreactivity (PSR sort gate): low polyreactivity

## QVQLVESGGGLVQAGGSLRLSCAASGITFYGYAMAWYRQAPGKERELVATITSGGSTYYADSVKGRFTISRDNAKNTVYLQMNSLKPEDTAVYYCAASRWYRRTRYGYWGQGTQVTVSS
  polyreactivity (PSR sort gate): high polyreactivity

## QVQLVESGGGLVQAGGSLSLSCAASGRIFSLNVMGWYSQARGKERELVATIRGRGTSTYYADSVKGRFTISRDTAKNTVYLQMNSLKPEDTAVFYCAARGHGAYGYWGQGTQVTVSS
  polyreactivity (PSR sort gate): low polyreactivity

## QVQLVESGGGLVQAGGSLRLSCAASGSIFYYYAMGWYRQAPGKEREFVATIRRSGASTYYADSVKGRFTISRDNAKNTVYLQMNSLKPEDTAVYYCNAASARRPIYEAARWSKYDYWGQGTQVTVSS
  polyreactivity (PSR sort gate): low polyreactivity

## QVQLVESGGGLVQAGGSLRLSCAASGSTFRCYAMGWYRQAPGKERELVAAISRSGGSTYYADSVKGRFTISRDNAKNTVYLQMNSLKPEDTAVYYCNARSSKRSSRGYDYWGQGTQVTVSS
  polyreactivity (PSR sort gate): high polyreactivity

## QVQLVESGGGLVQAGGSLRLSCAASVRTSSKYALGWYRQAPGKERELVAGISASGTRTYYADSVKGRFTISRDNAKNTVYLQMNSLKPEDTAVYYCATSFFWYYYWGQGTQVTVSS
  polyreactivity (PSR sort gate): high polyreactivity

## QVQLVESGGGLVQAGGSLRLSCAASGFTFGSNTMGWYRQAPGKERELVAAITTSGDSTYYADSVKGRFTISRDHAKNTVYLQMNSLKPEDTAVYYCAAERRYGRYYRLVRLLGQGTQVTVSS
  polyreactivity (PSR sort gate): high polyreactivity

## QVQLVESGGGLVQAGGSLRLSCAASGSTFDPNAMGWYRQAPGKERELVASITSRGGSTYYADSVKGRFTISRDNAKNTVYLQMNSLKPEDTAVYYCAAVGGATYSWNGYSWYAWHNYWGQGTQVTVSS
  polyreactivity (PSR sort gate): low polyreactivity

## QVQRVEEGRGLVQAGGTLRISCAASGSIFNQYAMGWYRHAPGQERELVAAITASGGSTYYAVSVKGRFTISRDNAKKTVYLQMNCLKPEDPAVYYCAKVELRDSAELGSDEYDYWGQGTQVTVSS
  polyreactivity (PSR sort gate): low polyreactivity

## QVQLVESGGGLVQAGGSLRLSCAASGSTFSEYVMGWYRQAPGKERELVAVITTGTSTNYADSVKGRFTISRDNAKNTVYLQMNSLKPEDTAVYYCNAEYLYGVRYHDYWNDFDYWGQGTQVTVSS
  polyreactivity (PSR sort gate): low polyreactivity

## QVQLQESGGGLVQAGGSLRLSSAASGTITVLYKMGWFRQPPGKQREFVASINYGTSTYYADSVKGRFTVSRDSAKKTVSLQMNSLKPEDTAVYYCAAAYRWQDVYRYWGQGTQVTVSS
  polyreactivity (PSR sort gate): low polyreactivity

## QVQLVESGGGLVQAGGSLRLSCAASGRIFYSYAMGWSRQAPGKERELVAAISFSVGSTYYADSVKGRFTISRDNAKNSVYLQMNSLKPEDTAVYYCAASLGFPGYEYWGQGTQVTVSS
  polyreactivity (PSR sort gate): low polyreactivity

## QDQLVESGGGLVQAGGSLRLSCAASGFTFPVYAMGWYRQAPGKEWELVAAITRGGSTNYADSVKGRFTISRDNAKNTVYLQMNSLKPEDTAVYYCNADYAVAYHPDLGDYWGQGTQVTVSS
  polyreactivity (PSR sort gate): low polyreactivity

## QVQLVESGGGLVQAGGSLRLSCAASGITFVRYTMGWYRQAPGKERQFVAGITRGGSTCYADSVKGRFTISRDNAKNTVYLQMNSLKPEDTAVYYCAARPRFLRASVEYDYWGQGTQVTVSS
  polyreactivity (PSR sort gate): high polyreactivity

## QVQLVESGGGLVQAGGSLRLSCAASGSTFEYNVMGWYRQAPGKERELVAAITSGASTNYADSVKGRFTISRDNAKNSVYLQMNSLKPEDTAVYYCAAGESGSFFIYYYWGQGTQVTVSS
  polyreactivity (PSR sort gate): low polyreactivity

## QVQLVESGGGLVQAGGRLRLSCDASGSTFVKYAMGWYRQAPGKERELVARISSSGGSTYYADSVKGRFTISRDNAKNTVFLQMNSLKPEDTAVYYCAAPSLIAKYDYWGQGTHVTVSS
  polyreactivity (PSR sort gate): high polyreactivity

## QVQLVESGGGLVQAGGSLRLSCAASGFIFGTNAMGWYRQAPGKERELVASISSTGGSTYYADSVKGRFTISRDNAKNTVYLQMNSLKPEDTAVYYFSADPYPEYIRYLPGVDYWGQGTQVTVSS
  polyreactivity (PSR sort gate): low polyreactivity

## QVQLVESGGGLVQAGGSLRLSCAASGFTFEGYAMGWYRQAPGKERELVASISSGGGTNYADSVKGRFTISRDNAKNTVYLQMNSLKPEDTAVYYCAARAYPYFWTGQKLSRFGYWGQGTQVTVSS
  polyreactivity (PSR sort gate): high polyreactivity

## QVQLVESGGGLVQAGGSLRLSCAASGIIFGHYAMGWYRQAPGKERELVARITYSGTRTYYADSVKGRFTISRDNAKNTVYLQMNSLKPEDTAVYYCAAGYAYPRWVTAGNYWGQGTQVTVSS
  polyreactivity (PSR sort gate): high polyreactivity

## QGQLVESGGGLLQAGGSLRLSCAASGRTFPYNALGWYRQAPGKERELVAAMSSGTRTDSADAVKGRFTISRDTAKNTVYLQMNSLKPEATAVYYWAADDYHYLWRADGFDYWGQGTQVTVSS
  polyreactivity (PSR sort gate): high polyreactivity

## QVQLVESGGGLVQAGGSLRLSCAASGRIFGIYAMGWYRQAPGKERELVAAISYSGGSTYYADSVKGRFTISRDNAKNTVYLQMNSMKPEDTAVYYCNADYYASYYPYYSIRLDYWGQGTQVTVSS
  polyreactivity (PSR sort gate): low polyreactivity

## QVQLVESGGGLVQAGGSLRLSCAASGRTFSYYAMGWYRQAPGKERELVAAISSGGSTYYADSVKGRFTISRDNAKNTVYLQMNRLKPEDTAVYYCAKEYKQALGHVSFDYWGQGTQVTVSS
  polyreactivity (PSR sort gate): low polyreactivity

## QVQLVESGGGLVQAGGSLRLSCAASGSTFPWYAMGWYRQAPGKEREVVAAISSSGGSTYYADSVKGRFTISRDKAKNTVYLQMNSLKPEDTAVYYCNAQHPGYYWGYDYWGQGTQVTVSS
  polyreactivity (PSR sort gate): high polyreactivity

## QVQLVESGGGLVQAGGSLRLSCAASGRIFWYYAMGWYRQAPGKEWELVARISSSGGSTYYADSVKGRFTISRDNAKNTVYLQMNSLKPEDTAVYYCAKERYSGSSRYPMDYWGQGTQVTVSS
  polyreactivity (PSR sort gate): high polyreactivity

## QVQLVETGGGLVQAGGSLRLSCAASGSTFWRNSMGWYRHAPGKEREFVASISWSGGGTYYADSVKGRFTISRDNAKNTVYLQMNILKPEDTAVYYCAATPYWSYWYGNGDYDYWGQGTQVTVSS
  polyreactivity (PSR sort gate): low polyreactivity

## QVQLVESGGGLVQAGGSLRLSCAASGSIFWIYAMVWSRQAPGKERELVAVISDRGARTYYADSVKGRFTLSRDNAKNTVYLQMNSLKPEDTAVYYCNADTRQARLQKMDSWGQGTQVTVSS
  polyreactivity (PSR sort gate): high polyreactivity
